Source: patent publication US20050255555A1

Experiments:
[1] = molecular target: wt-EGFR, FLAG-tagged full-length human EGFR on BaF/3 cells (human) (UniProt P00533); experiment: FACS on wtEGFR-BaF/3 cells, 10 µg/ml antibody
[2] = molecular target: wt-EGFR, FLAG-tagged full-length human EGFR on BaF/3 cells (human) (UniProt P00533); experiment: FACS on wtEGFR-BaF/3 cells, median fluorescence against mock preincubation
[3] = molecular target: EGFR 273-621 C287R, yeast surface displayed (yeast; human); experiment: from the titrations on yeast surface
[4] = molecular target: EGFR 273-621 E293K, yeast surface displayed (yeast; human); experiment: from the titrations on yeast surface
[5] = molecular target: EGFR 273-621 E293K, yeast surface displayed (yeast; human); experiment: titration on yeast surface, flow cytometry
[6] = molecular target: EGFR 273-621 C287R, yeast surface displayed (yeast; human); experiment: titration on yeast surface, flow cytometry, global fit of three data sets
[7] = molecular target: wild-type EGFR 273-621, yeast surface displayed (Example 3) (yeast; human); experiment: as above
[8] = molecular target: wild-type EGFR 273-621, yeast surface displayed (Example 3) (yeast; human); experiment: titration on yeast displaying EGFR 273-621, flow cytometry, three data sets
[9] = molecular target: EGFR 273-621 C287R, yeast surface displayed (yeast; human); experiment: titration on yeast displaying EGFR 273-621 C287R, flow cytometry, three data sets
[10] = molecular target: monoclonal antibody 806; experiment: competition ELISA: peptide in solution against mAb […] binding to plate-coated 1-501 EGFR fragment

Sequence of monoclonal antibody 806 (VH): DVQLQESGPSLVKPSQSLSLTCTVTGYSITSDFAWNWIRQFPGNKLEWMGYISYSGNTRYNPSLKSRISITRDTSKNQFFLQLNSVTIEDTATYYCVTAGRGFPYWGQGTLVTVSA
Sequence of monoclonal antibody 806 (VL): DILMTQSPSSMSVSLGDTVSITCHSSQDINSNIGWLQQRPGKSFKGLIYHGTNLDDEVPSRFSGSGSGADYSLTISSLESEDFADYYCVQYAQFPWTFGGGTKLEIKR

| median fluorescence after mock preincubation [1] | change (%) in antibody reactivity after preincubation with EGF [2] [%] | change (%) in antibody reactivity after preincubation with mAb[…] [2] [%] | ΔΔG compared to wild-type [3] [kcal/mol] | ΔΔG compared to wild-type [4] [kcal/mol] | Kd [5] [nM] | Kd [6] [nM] | Kd [7] [nM] | EC50 (read off the curve) [8] [nM] | EC50 (read off the curve) [9] [nM] | IC50 (read off the curve) [10] [µg/mL] | Molecule |
| --- | --- | --- | --- | --- | --- | --- | --- | --- | --- | --- | --- |
| 112 | -23 | -3 | – | – | – | – | – | – | – | – | monoclonal antibody 528 |
| 7 | -48 | 163 | 2.4 | 5.7 | > 30000 | 127 | 2.13 | 2 | 100 | – | monoclonal antibody 806 |
| – | – | – | – | – | – | – | – | – | – | 3 | CGADSYEMEEDGVRKC [287-302 EGFR peptide (287…302)] |
